The text below walks through data of article PMC3732525 (DNA repair, 2013).

This data set concerns the molecule itself. The data set can be described thus: SEC. For orientation: Size exclusion chromatography separates by hydrodynamic size, large species first.

B1: S. cerevisiae Dmc1 (ScDmc1), N-terminally (His)6-tagged (natural protein, UniProt P25453 1-334, looked up)
chain: MSVTGTEIDSDTAKNILSVDELQNYGINASDLQKLKSGGIYTVNTVLSTTRRHLCKIKGLSEVKVEKIKEAAGKIIQVGFIPATVQLDIRQRVYSLSTGSKQLDSILGGGIMTMSITEVFGEFRCGKTQMSHTLCVTTQLPREMGGGEGKVAYIDTEGTFRPERIKQIAEGYELDPESCLANVSYARALNSEHQMELVEQLGEELSSGDYRLIVVDSIMANFRVDYCGRGELSERQQKLNQHLFKLNRLAEEFNVAVFLTNQVQSDPGASALFASADGRKPIGGHVLAHASATRILLRKGRGDERVAKLQDSPDMPEKECVYVIGEKGITDSSD
For B1, the binding result is recorded as “binds”.
